Assay results as given in paper PMC4143144.

Molecular target: amino-terminal hexahistidine-tagged EttA-EQ2 (E. coli) (UniProt P0A9W3)
Test: pull-down

- stoichiometry N (EttA-EQ2:70S ribosome): 1
Substance: E. coli 70S ribosome (from UniProt P0A7L0 1-234; P62399 1-179; P0A7N9 1-55; P02359 1-179; P0A7R1 1-149) (complex)
